This is an account of results in US20210261944, “Compositions and methods for ordered and continuous complementary DNA (cDNA) synthesis across non-continuous templates” (The Regents of the University of California, published 2021).

Series [1] addresses T1, BomoC(ed) R2 RT (deltaN274, D996A) (Bombyx mori).
T1 chain: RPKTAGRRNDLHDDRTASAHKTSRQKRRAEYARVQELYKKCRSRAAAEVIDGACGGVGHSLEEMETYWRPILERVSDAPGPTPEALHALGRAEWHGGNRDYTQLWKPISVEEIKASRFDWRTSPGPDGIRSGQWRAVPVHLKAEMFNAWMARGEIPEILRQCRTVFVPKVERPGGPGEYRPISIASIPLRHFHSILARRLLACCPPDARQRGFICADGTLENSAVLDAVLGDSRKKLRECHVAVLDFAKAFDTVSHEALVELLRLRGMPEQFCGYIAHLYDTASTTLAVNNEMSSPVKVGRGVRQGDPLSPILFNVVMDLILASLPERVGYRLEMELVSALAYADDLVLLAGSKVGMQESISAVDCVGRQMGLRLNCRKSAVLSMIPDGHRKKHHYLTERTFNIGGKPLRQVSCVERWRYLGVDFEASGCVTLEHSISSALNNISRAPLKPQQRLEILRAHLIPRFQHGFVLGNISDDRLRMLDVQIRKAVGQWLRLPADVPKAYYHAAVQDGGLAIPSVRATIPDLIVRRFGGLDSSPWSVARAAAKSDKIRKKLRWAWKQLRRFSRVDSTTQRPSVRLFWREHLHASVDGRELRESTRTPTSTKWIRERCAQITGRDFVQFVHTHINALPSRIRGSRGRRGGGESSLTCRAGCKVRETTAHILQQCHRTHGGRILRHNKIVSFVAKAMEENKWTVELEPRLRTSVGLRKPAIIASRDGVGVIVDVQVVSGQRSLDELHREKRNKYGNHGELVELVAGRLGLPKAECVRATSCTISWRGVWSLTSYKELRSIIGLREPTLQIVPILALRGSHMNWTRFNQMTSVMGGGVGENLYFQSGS
The series is described as follows: primer extended across ddA-tailed miRNA pool; full-length cDNA library; Mg2+, 37C; enzyme named as modified R2 RT. The note with it: tags: N-terminal MBP, C-terminal 6xHis; partial duplex, +1T 3' overhang. From the text:
(§1) FIG. 15B. Analysis of reaction products by denaturing PAGE and SYBR Gold staining using a template RNA pool of 963 equimolar miRNA sequences (miRXplore). The full-length cDNA library (labeled cDNA+adaptor template) and some cDNA product from copying of the miRNA template only (labeled cDNA) are the predominant products. Excess adaptor primer and adaptor template are also stained. “No enz” is the no enzyme control. Lane+/− indicates addition of RNase A after product denaturation, which removes the non-extended strand of the primer duplex and truncates the ˜70 nt 3′ adaptor template. The library was sequenced with results shown in comparison to a low-cycle-PCR library in FIG. 16B.
(§2) Typical assays for cDNA synthesis by processive use of multiple template molecules (i.e., serial template copying) used a DNA primer that was annealed in full or part to a second strand, usually RNA, to generate a primer 3′ end that was blunt duplex or a short 3′ overhang of defined sequence. Templates included chemically synthesized RNA or DNA oligonucleotides and/or RNAs purified after T7 RNA polymerase transcription; templates were also isolated from biological sources. Reaction conditions were typically 20 mM Tris-HCl pH 7.5, 150 mM KCl, 2 mM MgCl₂, 10% glycerol with incubations at room temperature or 37° C. […]

The target in series [2] is T1, BomoC(ed) R2 RT (deltaN274, D996A). The series is described as follows: used as second (terminal) template in ordered template relay; Mg2+, 37C. The note with it: tags: N-terminal MBP, C-terminal 6xHis; partial duplex, 3' C.
Description: as §1, §2

Series [3] shares this target. The experiment in a line: primer for low-PCR cDNA library; Mg2+, 37C. As to conditions: tags: N-terminal MBP, C-terminal 6xHis; partial duplex.

B1: no-PCR adaptor primer partial duplex c5p(FL)/c5pt (DNA:RNA)
DNA: CAAGCAGAAGACGGCATACGAGATGACGAGAGGTGACTGGAGTTCAGACGTGTGCTCTTCCGATCT
RNA: GAUCGGAAGAGCACACGUCUGAACUCCAGU
modifications: 3' C3 spacer on RNA strand
Regarding B1, the binding result in series [1] is “binds”.

B2: no-PCR adaptor template partial duplex c3t(FL)/c3t_comp (mixed)
DNA: AATGATACGGCGACCACCGAGATCTACACCGCAGACGACACTCTTTCCCTACACGACGCTCTTCCGATCTC
RNA: GUGUAGAUCUCGGUGGUCGCCGUAUCAUU
modifications: 5' amino modifier C6, mixed DNA/ribonucleotides; complement 3' C3 spacer
On to B2, for which the binding result in series [2] is “binds”.

B3: low-PCR adaptor primer duplex c5p(uni)/c5pt (DNA:RNA)
DNA: GTGACTGGAGTTCAGACGTGTGCTCTTCCGATCC
RNA: GAUCGGAAGAGCACACGUCUGAACUCCAGU
modifications: 3' C3 spacer on RNA strand
In the case of B3, in series [3], the binding result is “binds”.
